Earlier results on 1 substance are cited in PMC2751630.

What is called Kd is the constant that tells how readily two partners part at equilibrium.

Targets include PKA RIIβ (Homo sapiens) (UniProt P31323); PKA RI (Homo sapiens) (UniProt P10644); PKA RIIα (Homo sapiens) (UniProt P13861).

Sequence of AKAP79 (P24588 whole entry): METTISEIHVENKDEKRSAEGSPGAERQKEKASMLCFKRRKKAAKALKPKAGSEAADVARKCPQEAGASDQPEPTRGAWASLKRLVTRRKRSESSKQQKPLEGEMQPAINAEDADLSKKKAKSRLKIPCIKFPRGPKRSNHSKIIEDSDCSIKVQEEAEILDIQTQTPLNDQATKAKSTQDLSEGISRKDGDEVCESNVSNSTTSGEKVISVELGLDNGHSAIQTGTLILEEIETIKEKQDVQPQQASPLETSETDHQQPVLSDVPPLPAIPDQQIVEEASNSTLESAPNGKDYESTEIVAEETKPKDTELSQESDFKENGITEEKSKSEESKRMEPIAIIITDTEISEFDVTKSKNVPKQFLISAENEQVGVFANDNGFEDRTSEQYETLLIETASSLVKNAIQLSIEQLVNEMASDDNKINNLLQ
Sequence of PKA RIIβ (Homo sapiens) (P31323 whole entry): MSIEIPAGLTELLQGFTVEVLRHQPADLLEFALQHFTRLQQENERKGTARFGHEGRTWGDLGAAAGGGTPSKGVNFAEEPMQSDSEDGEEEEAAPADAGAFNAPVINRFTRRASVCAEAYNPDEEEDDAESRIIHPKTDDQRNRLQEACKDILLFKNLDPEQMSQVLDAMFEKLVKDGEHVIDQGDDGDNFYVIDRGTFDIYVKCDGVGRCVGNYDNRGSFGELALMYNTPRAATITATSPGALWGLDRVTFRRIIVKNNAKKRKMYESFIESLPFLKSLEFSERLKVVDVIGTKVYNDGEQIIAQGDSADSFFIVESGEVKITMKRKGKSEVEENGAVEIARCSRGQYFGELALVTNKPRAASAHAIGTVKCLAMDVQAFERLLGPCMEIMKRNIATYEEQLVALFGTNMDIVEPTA
Sequence of PKA RIIα (Homo sapiens) (P13861 2-404): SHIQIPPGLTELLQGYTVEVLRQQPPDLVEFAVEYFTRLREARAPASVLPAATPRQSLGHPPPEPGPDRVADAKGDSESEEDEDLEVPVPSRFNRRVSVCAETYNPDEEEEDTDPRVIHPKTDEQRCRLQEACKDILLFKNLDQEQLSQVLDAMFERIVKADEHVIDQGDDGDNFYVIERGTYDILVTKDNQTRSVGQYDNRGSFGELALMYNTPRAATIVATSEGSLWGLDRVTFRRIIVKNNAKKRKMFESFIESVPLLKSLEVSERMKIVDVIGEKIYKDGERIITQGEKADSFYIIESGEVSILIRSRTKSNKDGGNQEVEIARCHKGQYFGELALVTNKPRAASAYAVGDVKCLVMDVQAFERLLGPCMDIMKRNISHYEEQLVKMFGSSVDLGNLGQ
Sequence of PKA RI (Homo sapiens) (P10644 whole entry): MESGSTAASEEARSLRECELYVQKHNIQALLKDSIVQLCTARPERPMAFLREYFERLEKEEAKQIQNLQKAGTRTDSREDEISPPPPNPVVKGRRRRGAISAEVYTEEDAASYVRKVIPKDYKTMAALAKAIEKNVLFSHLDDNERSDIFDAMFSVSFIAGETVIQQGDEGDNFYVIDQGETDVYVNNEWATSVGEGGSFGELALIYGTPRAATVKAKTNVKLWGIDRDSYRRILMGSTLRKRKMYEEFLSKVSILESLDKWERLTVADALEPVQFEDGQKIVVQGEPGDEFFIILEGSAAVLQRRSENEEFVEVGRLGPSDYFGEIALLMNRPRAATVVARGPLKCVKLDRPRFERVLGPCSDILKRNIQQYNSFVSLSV

Turning to AKAP79 (from UniProt P24588), the Kd with PKA RIIβ (Homo sapiens) was 4.5 nM; in the series with PKA RI (Homo sapiens), greater than 1000 nM; with PKA RIIα (Homo sapiens), 1.5 nM.
